In assay [1] the target is KRAS-G12D in AsPC-1 cells (UniProt P01116). As to the kind of experiment: cell-based or functional assay.
The target in assay [2] is Biotin-labeled KRAS-G12D protein (UniProt P01116-2 1-169, limits assumed, biotin label (site not stated); loaded with BODIPY-GDP). As to the kind of experiment: cell-based or functional assay.

Some results are limits rather than exact numbers.

The substance “cyclo(FLac-NMeA~PyrimAla-rF2Cba-Phe2F-Nle-NMe3Pal-amBCP) isomer 2 (peptide)” displayed an AlphaScreen @18 h, EC50 in assay [1] greater than 50.9 µM. The SOS assay EC50 in assay [2] amounted to 8.19 µM.

The substance “cyclo(FLac-NMeDabN3-3Pal-Nle-Phe2F-Nle-NMe3Pal-amBCP) (peptide)” returned an AlphaScreen @18 h, EC50 in assay [1] of 3.95 µM. In assay [2], this substance came in with an SOS assay EC50 of 0.0876 µM.

In turn, “cyclo(FLac-nMeSMe-3Pal-Nle-Phe2F-Nle-NMe3Pal-amBCP) (peptide)” registered an AlphaScreen @18 h, EC50 in assay [1] greater than 50.9 µM. Besides, in assay [2], the SOS assay EC50 worked out at 6.41 µM.

Values taken from patent publication US20260001914A1, “MACROCYCLIC PEPTIDES TARGETING KRAS” (Merck Sharp & Dohme LLC, priority 2022, published 2026).
